Results: doi:10.1101/712158

What was measured:
[1] = molecular target: L19-hIL2 (human); experiment: SEC
[2] = molecular target: L19-mTNF (murine); experiment: SEC

Substance | stoichiometry N [1] | stoichiometry N [2]
L19-hIL2 | 2 | 
L19-mTNF |  | 3
